Data as given in the DeepSol protein solubility set.

Assay: soluble on expression in E. coli; label from the status in PepcDB or PDB records
With “GPGSMSSEHGEILRLWEKLRTIEDRTEEQVAMPSSKKTAYAHKYPMVDKLMHLIEPKFANLVRTPSVSRVVQSMIKYGSAEQVNRLLKWVSKDFSTYATDAYAHFVVCALVRHVPHEAYSKLMTHVIPSVPQLVAHKFGIEVLHSVYSSRWCSPADRSLLLLAVFKDNVAVMRRWPGYPEVEAVLKKNPSLQRRLLSRLFDLSDKLVSQKEAIGYPFVQRLVGTYVRCGTRDEVSELCDTLRPHITAISATREGAPLASLAFSLTEPKKRKEVLHSFNAQLGELCTSKYAAPVIARLFDLLYDAQMLRKYVASDLAEHIGQVVNSPYGYQILMHLLTPHEERKRRFLLPNWQEHNLFSMENKEWNHHTWLTPAFVPETVEICSKPAVTSHLAALPMLVKAFLQYVTDEAHSAKLNRHHAALIAREVLHVVQHEPLYKAAIQLSEDEEHALSKLAPAHGKREREDAAGEVETYAAAPTKCPKRENGSQKAAALTPADKRKKTKVPTVISAAAPLEGRRVKTDAKKRVKKS” the “soluble on expression in E. coli” value was “soluble”. With “GPGSMSTSAYRVASLLRQENNKLCSDKEKNTLARLTRDVEAFLDHAADVPPVVMETPYDDGETDLMEVHLSVVAGVLEPCEPASDVTAVDGVFMPTAKNHVAMDRKRVREAQAMLNLLGALSTDCNMPTASVAAATRCRLSLGSGEKADFESDDESIAVFDADELENDTSSSDGESNVHGRPPPRILELN” the “soluble on expression in E. coli” value was “soluble”. With “GPGSMVEVPRNFRLLQELEAGEKGTGVSQSVSIGLSGMDDIYMHNWNGTILGPPGTTFENRILSLEIHCDEHYPKRPPNIKFISRVNLPCVSSDGTVDKNKFAVFKTWDRNFTMAHCLMELRREMSLPANKKLPQPEEGSTY” the “soluble on expression in E. coli” value was “soluble”. In the case of “GPGSMVTTDINRDPVKRAMEDGTWRPGQKTAPQQQPQSLGVQCVAAPPQQAPCVPPLLVQYVPAPQAQYTPQPQLMQYVPQQPPQGYYQPRPPLPQPSYYPPGPPPPLQSGYYQQPPVPIQQVYYTQPPSQCYAPQPQYQY”, the “soluble on expression in E. coli” value is reported as “not soluble”. In the case of “GPLGSHMSQAVQTNGTQPLSKTWELSLYELQRTPQEAITDGLEIVVSPRSLHSELMCPICLDMLKNTMTTKECLHRFCADCIITALRSGNKECPTCRKKLVSKRSLRPDPNFDALISKIYPSRDEYEAHQERVLARINKHNNQQALSHSIEEGLKIQAMNRLQRG”, the “soluble on expression in E. coli” value is reported as “soluble”. In the case of “GPLGSPEFISLTSIPSLREQQHPLIRQLADCIEEVWHQHLDLSPYHLPAELGYVEGRLEGEKLTIENRCYQTPQFRKMHLELAKVGNMLDILHCVMFPRPEYDLPMFGCDLVGGRGQISAAIADLSPVHLDRTLPESYNSALTSLNTLNFSQPRELPEWGNIFSDFCIFVRPSSPEEEAMFLGRVREFLQVHCQGAIAASPVSAEQKQQILAGQHNYCSKQQQNDKTRRVLEKAFGVDWAENYMTTVLFDLPE”, the “soluble on expression in E. coli” value is reported as “soluble”. With “GPLGSPLIGEIGPETYSDYMSAGIPLAYIFAETAEERKELSDKLKPIAEAQRGVINFGTIDAKAFGAHAGNLNLKTDKFPAFAIQEVAKNQKFPFDQEKEITFEAIKAFVDDFVAGKIEPSIKSEPIPEKQEG” the “soluble on expression in E. coli” value was “soluble”. For “GPLGSSAVTITLKTLQQQTFKIRMEPDETVKVLKEKIEAEKGRDAFPVAGQKLIYAGKILSDDVPIRDYRIDEKNFVVVMVTKTKAGQGTSAPPEASPTAAPESSTSFPPAPTSGMSHPPPAAREDKSPSEESAPTTSPESVSGSVPSSGSSGREEDAASTLVTGSEYETMLTEIMSMGYERERVVAALRASYNNPHRAVEYLLTGIPGSPEPEHGSVQESQVSEQPATEAAGENPLEFLRDQPQFQNMRQVIQQNPALLPALLQQLGQENPQLLQQISRHQEQFIQMLNEPPGELADISDVEGEVGAIGEEAPQMNYIQVTPQEKEAIERLKALGFPESLVIQAYFACEKNENLAANFLLSQNFDDE”, the “soluble on expression in E. coli” value was “soluble”. For “GPLGSSMEDHDDHLRRKFMEFPYVSPTRKQLMVDLMSTVENRLQSQLLPCNLPPDVRNFNNPNGSAEASLHIRSGDKSSPIDFVIGSWIHCKIPTGVSLNITSISGFLNSSTKAPNFVVELIQSSSKSLVLILDLPHRKDLVLNPDYLKEYYQDTALDSHRQSLLKLPEVNPYVSPSLFVRSAFSPTASMLKIDAEEEDKLEEILRDHVSPAAKEVLEVWLERCVKEEEEKIVVGEEERMELERRDKSFRRKSIEDDLDLQFPRMFGEEVSSRVVHAIKEAFGVL”, the “soluble on expression in E. coli” value was “soluble”. With “GQDRFVYTCNECKHHVETRWHCTVCEDYDLCINCYNTKSHTHKMVKWGLGLD” the “soluble on expression in E. coli” value was “soluble”. For “GQEPENQTLETILNRKSVRKYKDRPVEKEKIDKLIRAGMAAPSSRDRRPWEFIIVTDRKALDTMAEGLPFARMLKETRQAIVVCGDTIKSSNAWFLDCSAASQNLLLAAESMGLGAVWTAVYPYPDRIEIVRKELRLPDHIMPLNVIPVGYPMQKETPKNKYNVQQIHHNGW”, the “soluble on expression in E. coli” value was “soluble”. In the case of “GRTVVVLGGGISGLAASYHLSRAPCPPKVVLVESSERLGGWIRSVRGPNGAIFELGPRGIRPAGALGARTLLLVSELGLDSEVLPVRGDHPAAQNRFLYVGGALHALPTGLRGLLRPSPPFSKPLFWAGLRELTKPRGKEPDETVHSFAQRRLGPEVASLAMDSLCRGVFAGNSRELSIRSCFPSLFQAEQTHRSILLGLLLGAGRTPQPDSALIRQALAERWSQWSLRGGLEMLPQALETHLTSRGVSVLRGQPVCGLSLQAEGRWKVSLRDSSLEADHVISAIPASVLSELLPAEAAPLARALSAITAVSVAVVNLQYQGAHLPVQGFGHLVPSSEDPGVLGIVYDSVAFPEQDGSPPGLRVTVMLGGSWLQTLEASGCVLSQELFQQRAQEAAATQLGLKEMPSHCLVHLHKNCIPQYTLGHWQKLESARQFLTAHRLPLTLAGASYEGVAVNDCIESGRQAAVSVLGTEPNS”, the “soluble on expression in E. coli” value is reported as “soluble”. For “GSDTPSNLMGKQQWKALVEEAIHSDWVKFRFQAAKNTWGKVFHNEVFSSIEKDGETYRANQYLFALEQLDATNIFDQYVIESMIKMLESGELNDPVAINIAQSSLSQPSFIRWTTNMLEKHSKVASKLHFEIPEECFIDHPHHTALLCNAIRQSGAEFGVDNYGRNFQSLEYIQEFRPNYVKLDYLFTHNLHDEKQKFTLTSISRTAHNLGITTIASRIETQIQLDFLTEHFVEVFQGFIVDKE”, the “soluble on expression in E. coli” value was “not soluble”. For “GSELETAMETLINVFHAHSGKEGDKYKLSKKELKELLQTELSGFLDAQKDADAVDKVMKELDEDGDGEVDFQEYVVLVAALTVACNNFFWENS”, the “soluble on expression in E. coli” value was “soluble”. In the case of “GSFTEGWVRFSPGPNAAAYLTLENPGDLPLRLVGARTPVAERVELHETFMREVEGKKVMGMRPVPFLEVPPKGRVELKPGGYHFMLLGLKRPLKAGEEVELDLLFAGGKVLKVVLPVEAR”, the “soluble on expression in E. coli” value is reported as “soluble”. For “GSGATSAAGKPQETFLDFNESPYGPSAKARAAMQRAAALCGRYDYDAQDALVGLFAKQNGIPAECVHAYCGSRQPLQYAVAAFTGKERGLVIADPSYDSVVGAAQAQGAKVAAVPLDAEAAHDIERMLAAAQRDAGLIYICNPNNPTGTLTPHERIVRAIERKPERSVVLVDEAYIHFSDAPSVVGLAVQRQDVLVLRTFSKLYGMAGARLGLAIGHPQLLARLERFGGHNVVPSPTAHAGLESLRDDDLVPRRKQQNAEVRERTIAWLRQQGFRCTASQSNCFMVDMRRPAELVIAELEKQRVHVGRPWASWPNWVRVTVGSEEEMQAFR”, the “soluble on expression in E. coli” value was “not soluble”. For “GSGEAKPQAPELRIFPKKMDAELGQKVDLVCEVLGSVSQGCSWLFQNSSSKLPQPTFVVYMASSHNKITWDEKLNSSKLFSAMRDTNNKYVLTLNKFSKENEGYYFCSVISNSVMYFSSVVPVLQKVNSTTTKPVLRTPSPVHPTGTSQPQRPEDCRPRGSVKGTG”, the “soluble on expression in E. coli” value was “soluble”. In the case of “GSGMRFYVKDHRNKAMINLHIQKDNPKIVHAFDMEDLGDKAVYCRCWRSKKFPFCDGAHTKHNEETGDNVGPLIIKKKET”, the “soluble on expression in E. coli” value is reported as “soluble”. For “GSGNRTRKRRMINASVWMPPMENEEKNRKNHQSITSSQHSLLEASYDGYIKRQRNELQHYSLYPNPQGYGNGNDFLGDFNHTNLQIPTEPEPESPIKLHTEAAGSYAITEPITRESVNIIDPRHNRTVLHWIASNSSAEKSEDLIVHEAKECIAAGADVNAMDCDENTPLMLAVLARRRRLVAYLMKAGADPTIYNKSERSALHQAAANRDFGMMVYMLNSTKLKGDIEELDRNGMTALMIVAHNEGRDQVASAKLLVEKGAKVDYDGAARKDSEKYKGRTALHYAAQVSNMPIVKYLVGEKGSNKDKQDEDGKTPIMLAAQEGRIEVVMYLIQQGASVEAVDATDHTARQLAQANNHHNIVDIFDRCRPERE”, the “soluble on expression in E. coli” value was “soluble”. With “GSHADLLRKNAEVTKQVSMARQAQVDLEREKKELEDSLERISDQGQRKTQEQLEVLESLKQELATSQRELQVLQGSLETSAQSEANWAAEFAELEKERDSLVSGAAH” the “soluble on expression in E. coli” value was “soluble”. For “GSHMAQQNILSVHILNQQTGKPAADVTVTLEKKADNGWLQLNTAKTDKDGRIKALWPEQTATTGDYRVVFKTGDYFKKQNLESFFPEIPVEFHINKVNEHYHVPLLLSQYGYSTYRGS”, the “soluble on expression in E. coli” value was “soluble”. In the case of “GSHMASMTGGQQMGRGSMVKVLTACGNGMGSSMVIKMKVENALRQLGVSDIESASCSVGEAKGLASNYDIVVASNHLIHELDGRTNGKLIGLDNLMDDNEIKTKLEEALK”, the “soluble on expression in E. coli” value is reported as “soluble”. For “GSHMASREQTMENILKAAKKKFGERGYEGTSIQEIAKEAKVNVAMASYYFNGKENLYYEVFKKYGLANELPNFLEKNQFNPINALREYLTVFTTHIKENPEIGTLAYEEIIKESARLEKIKPYFIGSFEQLKEILQEGEKQGVFHFFSINHTIHWITSIVLFPKFKKFIDGLVPRGSGGLVPRGSGDLVSRIISALTDKPNI”, the “soluble on expression in E. coli” value was “soluble”. In the case of “GSHMATPWSGYLDDVSAKFDTGVDNLQTQVTEALDKLAAKPSDPALLAAYQSKLSEYNLYRNAQSNTAKAFKDIDAAIIQNFR”, the “soluble on expression in E. coli” value is reported as “soluble”. In the case of “GSHMIDVPIPRFAVGIVIGRNGEMIKKIQNDAGVRIQFKPDDGTTPERIAQITGPPDRAQHAAEIITDLLRSVQAGNPGGPGPGGRGRGRGQGNWNMGPPGGLQEFNFIVPTGKTGLIIGKGGETIKSISQQSGARIELQRNPPPNADPNMKLFTIRGTPQQIDYARQLIEEKI”, the “soluble on expression in E. coli” value is reported as “soluble”. With “GSHMKDYSLEIDAVMKAAQINDTNNFVQALMRWHFSKETGSPFWLGMREQLNFDPIKDVKTINDLRQFSDISHCLRQEPVANLVPQGLPADSHPQVYESGGTTGAPKYVVAYDAWIEALISWRMSGYQHRPGRPSGNTLAAIPTGPHIVGAINKERALRLGGMFFSIDIDPRWVKRSLSEGDTATVRKYTHHLVDQVQNTLMNQDIRFLVTTPPVLRELLKRPEVVLQMKQSLAQITLGGTELNLDEIKFIASEILPDCEFSASYGSTSALGVSRSLLITSESQQVIYDSFSPFITYDVVDSITAQTVEYGERGNVIVTHLSPWAFYPRVAERDTAIRLPGVSGFAGDRLADIEPLKISEGRKVIEGVY” the “soluble on expression in E. coli” value was “soluble”. For “GSHMKFTRVCDRRDVPEGEALKVESGGTSVAIFNVDGELFATQDRCTHGDWSLSDGGYLEGDVVECSLHMGKFCVRTGKVKSPPPCEALKIFPIRIEDNDVLVDFEAGYLAP”, the “soluble on expression in E. coli” value was “soluble”.
